Patent US20250381254A1, “Augmented Acid Alpha-Glucosidase For The Treatment Of Pompe Disease” (Amicus Therapeutics, Inc., priority 2015, published 2025)
Where two headings read alike, the source gives them in different places.

Key:
CIMPR [1] = target: T1, CIMPR (Homo sapiens, UniProt P11717); assay: CIMPR affinity chromatography of rhGAA; format: binding; conditions: fraction of total enzyme by GAA activity
Procedure: To evaluate the ability of the rhGAA in Myozyme® and Lumizyme®, the only currently approved treatments for Pompe disease, these rhGAA preparations were injected onto a CIMPR column (which binds rhGAA having M6P groups) and subsequently eluted with a free […] gradient. Fractions were collected in 96-well plate and GAA activity assayed by 4MU—α-glucose substrate. The relative amounts of bound and unbound rhGAA were determined based on GAA activity and reported as the fraction of total enzyme.

[2] = test system: normal and Pompe fibroblast cell lines; assay: Cellular uptake of rhGAA in fibroblasts; format: cell-based; conditions: for concentration that saturates cellular receptors: 16-hr incubation
Procedure: The relative cellular uptake of ATB200 and Lumizyme® rhGAA were compared using normal and Pompe fibroblast cell lines. Comparisons involved 5-100 nM of ATB200 rhGAA according to the invention with 10-500 nM conventional rhGAA Lumizyme®. After 16-hr incubation, external rhGAA was inactivated with TRIS base and cells were washed 3-times with PBS prior to harvest. Internalized GAA measured by 4MU-α-Glucoside hydrolysis and was graphed relative to total cellular protein and the results appear in FIGS. 10A-B.

Gaa KO mice = assay: Muscle function in Gaa KO mice, 12 biweekly administrations; format: in vivo, mouse; conditions: 20 mg/kg ERT, 10 mg/kg miglustat, FIGS. 33A-33B
Source text: In FIG. 33A, * indicates statistically significant compared to Lumizyme® alone (p<0.05, 2-sided t-test). In FIGS. 34A-34G, * indicates statistically significant compared to Lumizyme® alone (p<0.05, multiple comparison using Dunnett's method under one-way ANOVA analysis).

[3] = cited from earlier work
CIMPR [4] = target: T1, CIMPR; assay: CIMPR plate binding assay
Procedure: Briefly, CIMPR-coated plates were used to capture GAA. Varying concentrations of rhGAA were applied to the immobilized receptor and unbound rhGAA was washed off. The amount of remaining rhGAA was determined by GAA activity.

[5] = test system: Pompe fibroblasts and skeletal muscle myoblasts; assay: Internalization by Pompe fibroblasts and skeletal muscle myoblasts; format: cell-based
Gaa knockout mice [6] = assay: Glycogen clearance, ATB200 vs Lumizyme, two IV bolus administrations; format: in vivo, mouse; conditions: ATB200 10 and 20 mg/kg; skeletal muscles
Source text: Animals are given two IV bolus administrations (every other week); tissues are harvested two weeks after the last dose and analyzed for acid α-glucosidase activity and glycogen content.

Gaa knockout mice [7] = assay: Muscle physiology and morphology in Gaa-knockout mice; format: in vivo, mouse; conditions: 20 mg/kg rhGAA IV every other week, miglustat 10 mg/kg oral where co-administered
cynomolgus monkeys = assay: 13-week toxicity study in cynomolgus monkeys; conditions: once every other week for 13 weeks
Procedure: Animals were acclimated to the study room for 18 (females) to 19 (males) days. On the final day of acclimation, animals weighed between 2.243 kg and 5.413 kg and were 2 to 3 years of age.
ATB200 is formulated in 25 mM sodium phosphate buffer, pH 6 containing 2.92 mg/mL sodium chloride, 20 mg/mL mannitol, and 0.5 mg/mL polysorbate 80 (formulation buffer). Test article (ATB200 or miglustat) and control article/vehicle (formulation buffer) were administered once every other week for 13 weeks, starting on Day 1 and ending on Day 85. ATB200 and the control article/vehicle were administered by 2 hour (±10 minute) intravenous (IV) infusion at 0 mg/kg (Group 1, control article), 50 mg/kg (Group 2), or 100 mg/kg (Groups 3 and 5). Miglustat was administered nasogastrically in sterile water for injection, USP, at 25 mg/kg (Group 2) or 175 mg/kg (Groups 3 and 4), 30 minutes (±2 minutes) prior to the start of the infusion for ATB200, when given in combination. The dosing volume across all groups was 10 mL/kg.
Parameters assessed during the in-life phase of the study included body weights, food consumption, clinical observations, detailed clinical observations, physical examinations, electrocardiography, ophthalmic assessments, clinical pathology (hematology, coagulation, serum chemistry), anti-drug antibody (ADA) assessment, neutralizing ADA assessment, urinalysis, and plasma toxicokinetics (TK) for miglustat and ATB200 activity and total protein. Terminal necropsy of animals was performed on Day 99 (14 days after the last dose administration). At necropsy, gross observations and organ weights were recorded, and tissues were collected for microscopic examination.

[8] = human, in vivo
Source text: The study will be conducted in 2 stages.
This stage will include: • Safety: review of AEs, including serious adverse events (SAEs) and IARs; review of concomitant medications and nondrug therapies; vital signs (HR, RR, BP, and temperature); brief PE; ECG; clinical safety laboratory assessments (serum chemistry, hematology, and urinalysis); and urine pregnancy test • PD: urinary Hex4 and serum CPK • Immunological: blood samples for anti-recombinant acid α-glucosidase antibody titers (anti-recombinant acid α-glucosidase total and neutralizing antibody titers and antibody cross-reactivity with alglucosidase alfa) and blood samples for measurement of pro-inflammatory cytokines and other biomarkers of immune system activation. If needed, IgE measurements will also be performed. • Serial 24-hour pharmacokinetics (PK): During Period 1 (Visit 3, Day 1), Period 2 (Visit 4, Day 15), and Period 3 (Visit 5, Day 29), blood sampling for plasma acid α-glucosidase activity levels and total acid α-glucosidase protein concentrations will be taken for all subjects.
• Safety: review of AEs, including SAEs and IARs; review of concomitant medications and nondrug therapies; vital signs (HR, RR, BP, and temperature); weight; PE; ECG; clinical safety laboratory assessments (serum chemistry, hematology, and urinalysis); and urine pregnancy test • PD: urinary Hex4 and serum CPK • Immunological: blood samples for anti-recombinant acid α-glucosidase antibody titers (anti-recombinant acid α-glucosidase total and neutralizing antibody titers, and antibody cross-reactivity with alglucosidase alfa) and blood samples for measurement of pro-inflammatory cytokines and other biomarkers of immune system activation. If needed, IgE measurements will also be performed. • Serial 24-hour PK: During Period 4 (Visit 6, Day 43 and Visit 8, Day 71) and Period 5 (Visit 9, Day 85 and Visit 11, Day 113), blood sampling for plasma acid α-glucosidase activity levels, total acid α-glucosidase protein concentrations, and miglustat concentrations will be taken for all subjects. […]

[9] = Clinical study: ALT, AST and CPK biomarkers; format: in vivo, human
Procedure: Alanine aminotransferase (ALT), aspartate aminotransferase (AST) and creatine phosphokinase (CPK) levels were monitored in human patients that switched from Lumizyme® to ATB200. The patients received ascending doses of ATB200 (5, 10 and 20 mg/kg) followed by co-administration of ATB200 (20 mg/kg) and miglustat (130 and 260 mg). High levels of CPK enzyme may indicate injury or stress to muscle tissue, heart, or brain. Elevated ALT and AST are markers of liver and muscle damage from Pompe disease, respectively.

[10] = in vivo
[11] = in vivo; remark: listed apart in the source
Procedure: Pharmacokinetic data for acid α-glucosidase (ATB200), including sampling times, dosing history and plasma concentrations of acid α-glucosidase, is obtained from mice, rats and monkeys administered ATB200 by intravenous injection. […] Modeling and simulations are performed using Phoenix® NLME™ v1.3. Compartmental PK models are constructed to assess the PK of ATB200 in plasma. The models include: • Description of the relationships between plasma concentration and time; • A variance component characterizing between- and within-animal variability in model parameters; and • A component describing uncertainty in the state of knowledge about critical model components.
PK is assumed to be species independent and is scaled according to a generalized Dedrick approach that scales the disposition according to the power of an animal's body weight:
where CL=systemic clearance, V=volume of distribution, BW=body weight, p=peripheral, b and d=allometric exponents, and a and c=typical values for a BW=1. […] Nominal BW (0.025, 0.25 and 2.5 kg) are used in the analyses.
The model includes a theoretical allometric component accounting for difference in body weight across animal species on clearance (CL) and volume of distribution (Vc).

[12] = cynomolgus monkey, in vivo
Procedure: Total anti-drug antibody (ADA) and neutralizing antibody (NAb) levels are measured in plasma. Blood samples (approximately 1.6 mL) were collected in K2EDTA tubes from all animals once during acclimation, predose (prior to administration of miglustat) and on Days 1, 85 and 99. Samples were maintained on wet ice until processed. Plasma was obtained by centrifugation at 2° C. to 8° C. and aliquots (approximately 0.2 mL) were transferred to polypropylene vials, and stored frozen at −60° C. to −86° C. within one hour from blood collection. Analysis of samples for ADA was conducted on samples collected from animals in Groups 1, 2, 3, and 5 (miglustat only samples were not analyzed). Analysis for neutralizing antibodies was conducted using an enzyme assay with the fluorogenic substrate 4-methylumbelliferyl-α-D-glucopyranoside (4MU-Glc).

[13] = cynomolgus monkey, in vivo; remark: listed apart in the source
Procedure: ATB200 toxicokinetics were measured in blood samples collected in K2EDTA tubes from animals on Days 1 and 85 at the following time points: • For Groups 1, 2, 3, and 5: Predose (prior to administration of miglustat); 1 hour from initiation of infusion; 2 hours from initiation of infusion; 2.5 hours from initiation of infusion; 3 hours from initiation of infusion; 4 hours from initiation of infusion; 6 hours from initiation of infusion; 12 hours from initiation of infusion; 26 hours from initiation of infusion; 168 hours from initiation of infusion; and 336 hours from initiation of infusion (collected prior to dosing on Day 15); and • For Group 4: Predose (prior to administration of miglustat); 1.5 hour post administration of miglustat; 2.5 hours post administration of miglustat; 3.5 hours post administration of miglustat; 4.5 hours post administration of miglustat; 6.5 hours post administration of miglustat; 12.5 hours post administration of miglustat; 26.5 hours post administration of miglustat; 168.5 hours post administration of miglustat; and 336.5 hours post administration of miglustat (collected prior to dosing on Day 15). […]
Total ATB200 protein was measured by liquid chromatography coupled to tandem mass spectrometry (LC-MS/MS). […]

[14] = in vivo, iv, 100 mg/kg
[15] = human, in vivo; remark: listed apart in the source
Procedure: This is an open-label, fixed-sequence, ascending-dose, first-in-human study to evaluate the safety, tolerability, and pharmacokinetics (PK) of intravenous (IV) recombinant acid α-glucosidase (ATB200, lyophilized powder reconstituted with sterile water for injection and diluted with 0.9% sodium chloride for injection) alone and when co-administered with oral miglustat (hard gelatin capsules, 65 mg). The study will be conducted in 2 stages. In Stage 1, safety, tolerability, and PK will be evaluated following sequential single ascending doses of ATB200, administered every 2 weeks as an approximately 4 hour intravenous infusion, for 3 dosing periods at 5, 10, and 20 mg/kg. In Stage 2, safety, tolerability, and PK will be evaluated following single- and multiple-ascending dose combinations: 20 mg/kg ATB200 co-administered every 2 weeks with 130 mg miglustat (two 65 mg capsules), taken orally 1 hour prior to an approximately 4 hour intravenous infusion of ATB200, for 3 doses followed by 20 mg/kg ATB200 co-administered with 260 mg miglustat (four 65 mg capsules), taken orally 1 hour prior to an approximately 4 hour intravenous infusion of ATB200, for 3 doses.

Gaa knockout mice [16] = assay: Exposure-response: glycogen levels in Gaa knockout mice
Procedure: Gaa knockout mice are administered acid α-glucosidase (ATB200) intravenously at doses of 5, 10 and 20 mg/kg, rising oral doses of miglustat (1, 3 and 10 mg/kg) concomitantly with intravenous doses of 5 or 10 mg/kg of ATB200 or rising oral doses of miglustat (1, 3, 5, 10, 20, and 30 mg/kg) concomitantly with intravenous doses of 20 mg/kg of ATB200.

[17] = one patient, switched from Lumizyme®, ATB200 5, 10, 20 mg/kg then 20 mg/kg + miglustat 130 and 260 mg

T1 sequence (P11717 41-2491, species assumed): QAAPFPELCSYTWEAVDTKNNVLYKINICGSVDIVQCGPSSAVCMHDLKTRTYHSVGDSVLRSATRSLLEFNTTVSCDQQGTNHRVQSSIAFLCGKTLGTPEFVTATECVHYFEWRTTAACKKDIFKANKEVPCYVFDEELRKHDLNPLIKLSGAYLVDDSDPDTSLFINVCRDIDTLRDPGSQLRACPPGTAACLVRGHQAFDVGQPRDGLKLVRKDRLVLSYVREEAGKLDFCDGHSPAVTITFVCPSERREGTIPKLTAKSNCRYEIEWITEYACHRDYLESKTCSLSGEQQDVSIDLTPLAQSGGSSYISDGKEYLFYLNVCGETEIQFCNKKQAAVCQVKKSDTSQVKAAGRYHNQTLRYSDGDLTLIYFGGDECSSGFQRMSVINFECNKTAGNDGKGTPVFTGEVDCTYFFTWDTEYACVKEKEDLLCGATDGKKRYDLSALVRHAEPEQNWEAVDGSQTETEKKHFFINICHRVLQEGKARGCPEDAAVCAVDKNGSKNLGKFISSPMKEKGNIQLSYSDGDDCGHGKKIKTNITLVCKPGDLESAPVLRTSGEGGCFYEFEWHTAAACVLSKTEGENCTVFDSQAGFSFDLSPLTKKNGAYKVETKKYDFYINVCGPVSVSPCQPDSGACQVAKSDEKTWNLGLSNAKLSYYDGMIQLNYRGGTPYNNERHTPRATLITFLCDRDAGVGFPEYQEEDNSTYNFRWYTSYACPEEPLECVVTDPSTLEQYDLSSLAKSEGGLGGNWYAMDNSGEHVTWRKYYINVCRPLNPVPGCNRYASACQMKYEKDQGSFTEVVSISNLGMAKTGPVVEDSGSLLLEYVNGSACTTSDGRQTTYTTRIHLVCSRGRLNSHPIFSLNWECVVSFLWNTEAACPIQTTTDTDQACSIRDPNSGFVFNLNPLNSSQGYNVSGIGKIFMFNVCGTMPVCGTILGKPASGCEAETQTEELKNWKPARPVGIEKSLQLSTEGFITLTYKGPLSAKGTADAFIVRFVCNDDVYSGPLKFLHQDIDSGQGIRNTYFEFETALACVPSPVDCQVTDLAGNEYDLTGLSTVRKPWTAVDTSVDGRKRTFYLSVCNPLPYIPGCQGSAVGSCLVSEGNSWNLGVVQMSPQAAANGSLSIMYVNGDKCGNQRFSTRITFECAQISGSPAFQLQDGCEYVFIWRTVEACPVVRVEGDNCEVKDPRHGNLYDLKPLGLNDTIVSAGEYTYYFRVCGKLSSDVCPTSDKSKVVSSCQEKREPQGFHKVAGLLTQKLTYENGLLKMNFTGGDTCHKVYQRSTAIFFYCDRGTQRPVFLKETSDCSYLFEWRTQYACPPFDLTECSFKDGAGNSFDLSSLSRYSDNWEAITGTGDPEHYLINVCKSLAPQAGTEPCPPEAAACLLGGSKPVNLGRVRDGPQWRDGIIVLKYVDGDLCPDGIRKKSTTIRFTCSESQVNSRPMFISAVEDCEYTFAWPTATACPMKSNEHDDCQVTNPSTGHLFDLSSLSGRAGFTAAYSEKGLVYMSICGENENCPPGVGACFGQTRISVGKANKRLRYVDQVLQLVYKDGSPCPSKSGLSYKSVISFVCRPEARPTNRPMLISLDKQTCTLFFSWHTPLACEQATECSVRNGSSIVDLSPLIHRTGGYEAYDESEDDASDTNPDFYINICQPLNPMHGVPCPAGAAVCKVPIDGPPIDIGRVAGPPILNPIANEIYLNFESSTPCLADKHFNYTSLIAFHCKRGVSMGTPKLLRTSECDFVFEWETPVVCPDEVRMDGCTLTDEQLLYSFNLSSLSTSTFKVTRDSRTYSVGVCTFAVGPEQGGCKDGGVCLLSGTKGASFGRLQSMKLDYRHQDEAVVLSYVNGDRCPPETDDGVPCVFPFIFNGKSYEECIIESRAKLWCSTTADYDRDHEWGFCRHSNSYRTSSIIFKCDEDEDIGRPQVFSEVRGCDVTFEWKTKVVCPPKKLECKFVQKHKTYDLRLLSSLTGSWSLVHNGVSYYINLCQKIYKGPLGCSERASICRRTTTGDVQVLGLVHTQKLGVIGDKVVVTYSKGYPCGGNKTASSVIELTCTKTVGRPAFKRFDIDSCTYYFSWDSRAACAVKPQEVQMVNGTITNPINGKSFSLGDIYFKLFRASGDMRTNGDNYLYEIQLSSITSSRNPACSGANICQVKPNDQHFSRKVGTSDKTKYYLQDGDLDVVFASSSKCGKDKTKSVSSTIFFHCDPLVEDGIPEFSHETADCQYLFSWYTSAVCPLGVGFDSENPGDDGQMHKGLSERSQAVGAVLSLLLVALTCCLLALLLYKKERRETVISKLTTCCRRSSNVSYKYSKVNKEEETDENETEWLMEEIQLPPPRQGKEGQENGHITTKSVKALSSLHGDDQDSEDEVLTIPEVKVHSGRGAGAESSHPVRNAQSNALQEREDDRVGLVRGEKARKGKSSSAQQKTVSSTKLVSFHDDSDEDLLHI

Question: Which results are given for “Lumizyme®: conventional rhGAA product (alglucosidase alfa), Genzyme”?
Answer: rhGAA activity eluted prior to addition of M6P (did not bind to the CIMPR) (CIMPR [1]): 78%; rhGAA eluted with M6P / containing M6P (CIMPR binding) (CIMPR [1]): 22%; concentration that saturates cellular receptors [2]: about 250 nM; uptake efficiency constant (Kuptake) ([2]; extrapolated, FIG. 10C): 56 nM; functional muscle strength (grip strength and wire hang tests) (Gaa KO mice): observed to decline; AUC ([3]; 20 mg/kg dose, reported): ~2700 µg·h/mL; systemic clearance ([3]; Week 52, repeated dosing, late-stage Pompe disease, product label): 601 mL/h; half-life ([3]; product label): 2.4 h

Question: With ATB200 as the substance, how does the “CIMPR binding compared with Lumizyme®” value (CIMPR [4]; FIG. 9A) read?
Answer: The value was “bound to CIMPR significantly better than Lumizyme®”.

Question: And the Kd (CIMPR [4]; M6P receptor plate binding assays)?
Answer: Its Kd is 2 to 4 nM.

Question: And the “concentration that saturates cellular receptors” value [2]?
Answer: The value was “about 20 nM”.

Question: And the “internalization into normal and Pompe fibroblast cells” value ([2]; vs Lumizyme®)?
Answer: Its value is “internalized to a greater degree than conventional Lumizyme® rhGAA”.

Question: What about the “Kupdate (internalization)” value [5] of the same substance?
Answer: Its value is 7 to 14 nM.

Question: What about the “glycogen reduction vs Lumizyme® 20 mg/kg” value (Gaa knockout mice [6]) of the same substance?
Answer: The value was “significantly better reduction of glycogen levels in skeletal muscles than Lumizyme®”.

Question: What about the “lysosome proliferation (LAMP1)” value (Gaa knockout mice [7]; FIG. 20) of the same substance?
Answer: The value was “reduction in lysosome proliferation in heart, diaphragm and skeletal muscle (soleus) tissue compared to conventional treatment with alglucosidase alfa”.

Question: What about the “punctate glycogen levels (PAS)” value (Gaa knockout mice [7]; FIG. 21) of the same substance?
Answer: Its value is “reduction in punctate glycogen levels in heart and skeletal muscle (soleus) tissue compared to conventional treatment with alglucosidase alfa”.

Question: What about the “test article-related changes (survival, clinical observations, body weight, ECG, clinical pathology, organ weights, histopathology)” value (cynomolgus monkeys) of the same substance?
Answer: Its value is “no changes attributable”.

Question: What about the “No-Observed-Adverse-Effect-Level (NOAEL)” value (cynomolgus monkeys; 2 hour infusion, with or without miglustat, highest dosage tested) of the same substance?
Answer: Its value is 100 mg/kg/infusion.

Question: What about the Volume of distribution [8] of the same substance?
Answer: The Volume of distribution was 3.5 to 5.7 L.

Question: What about the “dose proportionality of exposures” value [8] of the same substance?
Answer: The value was “slightly greater than dose proportional exposures”.

Question: And the “tmax (median)” value ([8]; 20 mg/kg)?
Answer: The value was 4.0 h.

Question: What about the “reduction in ALT” value ([9]; another patient, same regimen) of the same substance?
Answer: Its value is 11%.

Question: What about the “reduction in AST” value ([9]; another patient, same regimen) of the same substance?
Answer: Its value is 22%.

Question: What about the “reduction in CPK” value ([9]; another patient, same regimen) of the same substance?
Answer: The value was 31%.

Question: And the “reduction in ALT” value [9, 17]?
Answer: Its value is 34%.

Question: And the “reduction in AST” value [9, 17]?
Answer: The value was 28%.

Question: And the “reduction in CPK” value [9, 17]?
Answer: The value was 44%.

Question: What about the “apparent plasma half-life t1/2” value [10] of the same substance?
Answer: The value was about 45 m.

Question: And the “Central volume of distribution (Vc)” value [11]?
Answer: The value was 0.0101 × (BW/0.25)^0.83 L.

Question: What about the “Peripheral clearance (CLd)” value [11] of the same substance?
Answer: The value was 0.00029 × (BW/0.25)^0.78 L/h.

Question: And the “Peripheral volume of distribution (V2)” value [11]?
Answer: Its value is 0.000653 × (BW/0.25)^0.83 L.

Question: What about the “Systemic clearance (CL)” value [11] of the same substance?
Answer: The value was 0.00957 × (BW/0.25)^0.78 L/h.

Question: What about the “anti-drug antibody (ADA) incidence” value [12] of the same substance?
Answer: Its value is 100%.

Question: What about the “mean terminal half-life (t1/2β)” value [13] of the same substance?
Answer: Its value is 1.70 to 11.1 h.

Question: What about the “time to maximal ATB200 plasma concentration (tmax)” value [13] of the same substance?
Answer: The value was “approximately 2 hours”.

Question: And the AUC [14]?
Answer: The AUC was 5330 µg·h/mL.

Question: And the adverse events [15]?
Answer: Its adverse events is “generally mild and transient”.

Question: And the infusion-associated reactions [15]?
Answer: The infusion-associated reactions was “no infusion-associated reactions”.

Question: And the serious adverse events [15]?
Answer: Its serious adverse events is “no serious adverse events (SAEs)”.

Question: What about the tissue glycogen depletion (Gaa knockout mice [16]; 5, 10 and 20 mg/kg IV) of the same substance?
Answer: Its tissue glycogen depletion is “deplete tissue glycogen in acid α-glucosidase (Gaa) knockout mice in a dose-dependent fashion”.

Question: And the “Glycogen, median” value (Gaa knockout mice [16]; ATB200 5 mg/kg monotherapy, Study #1)?
Answer: Its value is 307 μg/mg protein.

Question: What about the “Glycogen, median” value (Gaa knockout mice [16]; ATB200 5 mg/kg monotherapy, overall median) of the same substance?
Answer: The value was 307 μg/mg protein.

Question: What about the “Glycogen, median” value (Gaa knockout mice [16]; ATB200 10 mg/kg monotherapy, Study #1) of the same substance?
Answer: The value was 259 μg/mg protein.

Question: What about the “Glycogen, median” value (Gaa knockout mice [16]; ATB200 10 mg/kg monotherapy, overall median) of the same substance?
Answer: The value was 259 μg/mg protein.

Question: What about the “Glycogen, median” value (Gaa knockout mice [16]; ATB200 20 mg/kg monotherapy, Study #1) of the same substance?
Answer: The value was 157 μg/mg protein.

Question: And the “Glycogen, median” value (Gaa knockout mice [16]; ATB200 20 mg/kg monotherapy, Study #3)?
Answer: The value was 195 μg/mg protein.

Question: And the “Glycogen, median” value (Gaa knockout mice [16]; ATB200 20 mg/kg monotherapy, overall median)?
Answer: The value was 181 μg/mg protein.
